Data reported in PMC8240387.

Experiments:
[1] = target: Mammalian cell-expressed N6 (mN6), broadly neutralising anti-HIV monoclonal antibody N6 expressed in HEK-293T cells (human); assay: SPR
[2] = target: Plant-expressed N6 (pN6), broadly neutralising anti-HIV monoclonal antibody N6 expressed in glycoengineered ΔXF N. benthamiana (human); assay: SPR
Chain of Plant-expressed N6 (pN6), broadly neutralising anti-HIV monoclonal antibody N6 expressed in glycoengineered ΔXF N. benthamiana (human) (heavy, as listed by the source, chain 1 of 2): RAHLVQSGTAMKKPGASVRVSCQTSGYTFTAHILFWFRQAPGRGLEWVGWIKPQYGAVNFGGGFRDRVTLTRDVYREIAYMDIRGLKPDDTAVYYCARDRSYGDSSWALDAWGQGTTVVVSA
Chain of Plant-expressed N6 (pN6), broadly neutralising anti-HIV monoclonal antibody N6 expressed in glycoengineered ΔXF N. benthamiana (human) (light, as listed by the source, chain 2 of 2): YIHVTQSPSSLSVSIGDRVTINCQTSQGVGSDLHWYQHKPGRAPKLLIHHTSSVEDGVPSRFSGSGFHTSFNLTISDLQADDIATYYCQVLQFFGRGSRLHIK

Chain of Mammalian cell-expressed N6 (mN6), broadly neutralising anti-HIV monoclonal antibody N6 expressed in HEK-293T cells (human) (heavy, as listed by the source, chain 1 of 2): as the sequence (heavy, as listed by the source, chain 1 of 2) above
Chain of Mammalian cell-expressed N6 (mN6), broadly neutralising anti-HIV monoclonal antibody N6 expressed in HEK-293T cells (human) (light, as listed by the source, chain 2 of 2): as the sequence (light, as listed by the source, chain 2 of 2) above
Chain of soluble FcγRIIIa (P08637 17-208): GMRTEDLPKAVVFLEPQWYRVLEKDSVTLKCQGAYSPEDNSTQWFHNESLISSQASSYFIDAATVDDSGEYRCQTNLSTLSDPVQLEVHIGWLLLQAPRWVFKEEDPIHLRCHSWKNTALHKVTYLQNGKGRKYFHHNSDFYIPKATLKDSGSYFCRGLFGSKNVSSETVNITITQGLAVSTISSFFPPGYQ

Row | Substance | Kd [1] [nM] | Kd [2] [nM]
1 | recombinant, soluble HIV-1 UG37 gp140 (domain or fragment) | 17.1 | 11.9
2 | soluble FcγRIIIa (from UniProt P08637 17-208) (receptor) | 858 | 64.4
